Assay results: the DeepSol protein solubility set

Assay: soluble on expression in E. coli; label from the status in PepcDB or PDB records

Row | Sequence | soluble on expression in E. coli
1 | SQIPLCANLVPVPITNATLDRITGKWFYIASAFRNEEYNKSVQEIQATFFYFTPNKTEDTIFLREYQTRQNQCFYNSSYLNVQRENGTVSRYEGGREHVAHLLFLRDTKTLMFGSYLDDEKNWGLSFYADKPETTKEQLGEFYEALDCLCIPRSDVMYTDWKKDKCEPLEKQHEKERKQEEGES | soluble
2 | SQNNEIIKPAKYFSELEKSILLALVEKYKYVLECKKSDARTIALKQRTWQALAHEYNSQPSVSLRDFKQLKKCWENIKARTKKIMAHERREKVKRSVSPLLSTHVLGKEKIASMLPEQLYFLQSPPEEEPEYHPDASAQESFAVSNRELCDDEKEFIHFPVCEGTSQPEPSCSAVRITANKNYRSKTSQEGALKKMHEEEHHQQMSILQLQLIQMNEVHVAKIQQIERECEMAEEEHRIKMEVLNKKKMYWERKLQTFTKEWPVSSFNRPFPNSP | soluble
3 | SQTRDLQGGKAFGLLKAQQEERLDEINKQFLDDPKYSSDEDLPSKLEGFKEKYMEFDLNGNGDIDIMSLKRMLEKLGVPKTHLELKKLIGEVSSGSGETFSYPDFLRMMLGKRSAILKMILMYEEKAREK | not soluble
4 | SRMRRYKSYFDWFDRQELHSMFQIAVPSVLQQSTVSIGMMIVQAVVNPFGTQALAGYAATMRVENVFSLIFVSIGNAVSPYVSQNLGANKPQRIKKGYRAA | not soluble
5 | SRRLEDLHPDLQPLAHSFLRRCTDAGLDVLIYCTYRSGAEQDQLYAQGRKGSPGPIVTNARAGQSAHNFTIQNRPAARAFDAVPMVGGKPQWDQKHPHWQIMGRIGTELG | not soluble
6 | SSGGKSAQGPEEGGVCITEALITKRNLTFPEDGELSEKMFHTLDELQTVRLDREGITTIRNLEGLQNLHSLYLQGNKIQQIENLACIPSLRFLSLAGNQIRQVENLLDLPCLQFLDLSENLIETLKLDEFPQSLLILNLSGNSCTNQDGYRELVTEALPLLLDLDGQPVVERWISDEEDEASSDEEFPELSGPFCSERGFLKELEQELSRHREHRQQTALTEHLLRMEMQPTLTDLPLLPGVPMAGDSSPSATPAQGEETVPEAVSSPQASSPTKKPCSLIPRGHQSSFWGRKGARAATAPKASVAEAPSTTKTTAKRSKK | soluble
7 | SSIRFYLAPNDADFTVYYTGTDGNWYETKATYKKVSVKKYEVTLPEITIGGAAEIEFKGVHRGPPNTVISAKFDVVGGTTQPEPEPDPAPEPQPAPEPEPGTSVNPAAPTAVDPATAPSCVEKGYINIPDTKGVDYFIGGELKHAGQHFYEGQKASVKVTAKPQNGYQFAAGAKTEWSFDFSGEVKDCSDSSEDPKPAAVEGRHFDAIGHEFAVEADPVDPTKPNAFTAKVTAESHMKYATVRIETDATFLDPQKYNLTLDQIEPGVTLQKRNVNIGNGFITMDVVPVKDGKPVDSAVVPKDAVFTFTNNLSENKNLKIALDVYGANKSTPKPPDIISPPDGAQWVHGRVPNPPMPKRCGLRIAVVADLSTSLKYADSNGFDESKKAANALIDSLAGTPAELGIYNFAGGAPRNPAGSTYGQNPPYISLQSDDGVSRAKSIVSNWNGNGSTNWEAGLKQVAAGNYDVVYFITDGMPTYSSKAPQLGLGGEFVQESALNQAIDAANELKAAGTRVVPIMVDLTVGGKNAQHTTVTQDLVLKNVRFWKRGTSNSEPGLYFQFTNKYVDAASYVGDDTTANFEIAYKNGGFKVWERTSRGRNIDVTRDQSKWTYGPREVKTMGEDISGTGDTIRVEQYSQLAAQMKKIGEELALRCNGVVKVKKRIVDENGRAIEDGVPGWEFTLSAGGQDIIDPGNGDRVRKSLKATSSANEDRGTASWNIMSEQEQQLTLVETQQPGFNLYKRNDKNAVCTETRDGVMKPIEVTNDGEFGFKVKMRAKDKKLSSVSCVVDNYKQPETPPGKLTFKKAQYNGDKIEEIPGLGGATFEIYPSKGDQPDYSAEALYTIKPGQESIEVKTTGTFFLVETKAPKGLNLLAQPVKFEISVDETTKKYKISVGSTSSGQVQAKGEGDKMILTVADTTAGELPKTGG | not soluble
8 | SSLIQAGQQTRFTTDASAAVEPADSARETWSRGVLVAWDMTLGDVVKELRRYRSGYLGIAPEVAGLRVFGSFPLRDTDDTLTMLASALPIRIQRTLPWWVSIEARTDADPHR | not soluble
9 | SSMIMYRKDLMEKAGLTMPDAPTWDFVKEAAQKMTDKDAEVYGICLRGKAGWGENMAFLTAMANSYGARWFDENWQPQFDGEAWKATLTDYLDMMTNYGPPGASNNGFNENLALFQQGKCGMWIDATVAASFVTNPEESTVADKVGFALAPDTGKGKRANWLWAWNLAIPAGSQKVDAAKQFIAWATSKDYAELVASKEGWANVPPGTRISLYENP | not soluble
10 | SSQSISPMRSISENSLVAMDFSGQKSRVIENPTEALSVAVEEGLAWRKKGSLRLGTHGS | soluble
11 | SSSSVPNSDRKIVTGPAGYILEDVPHFSDDFPDHPTYPNPLQDNAAYSVVKQYFVDEDDTVPQKIVVHPDSPRGTHFRRAGPRQRVYFESDDVLACIVTCGGLCPGLNTVIREIVCGLSYMYGVKRILGIDGGYRGFYARNTIHLDLKTVNDIHRSGGTILGTSRGGHNTTKIVDSIQDRGINQVYIIGGDGSQKGAAAIFEEIRKRKLKVAVAGIPKTIDNDIPIIDRSFGFDTAVEEAQRAINAAHVEATSFENGIGLVKLMGRYSGFIAMHATLASRDVDCCLIPESPFFLEGSGGLFEFIDKRLKESGHMVIVIAEGAGQDLLSESMKESTTLKDASGNKLLQDIGLWISQRIKDHFAKKMTLTLKYIDPTYMIRAVPSNASDNVCCTLLAQSAVHGVMAGYNGFTVGLVNGRHTYIPFNRITEKQNKVVITDRMWARLLSSTNQPSFMKQADKIHSNQLVGEPGTMKW | soluble
12 | SSTFSASDFNSERYSSSRPSYPSDFYKMIDEYHDGERKLLVDVGCGPGTATLQMAQELKPFEQIIGSDLSATMIKTAEVIKEGSPDTYKNVSFKISSSDDFKFLGADSVDKQKIDMITAVECAHWFDFEKFQRSAYANLRKDGTIAIWGYADPIFPDYPEFDDLMIEVPYGKQGLGPYWEQPGRSRLRNMLKDSHLDPELFHDIQVSYFCAEDVRDKVKLHQHTKKPLLIRKQVTLVEFADYVRTWSAYHQWKQDPKNKDKEDVADWFIKESLRRRPELSTNTKIEVVWNTFYKLGKRV | soluble
13 | SSTGTFVVSQPLNYRGGARVEPADASGTEKAFEPATGRVIATFTCSGEKEVNLAVQNAKAAFKIWSQKSGMERCRILLEAARIIREREDEIATMECINNGKSIFEARLDIDISWQCLEYYAGLAASMAGEHIQLPGGSFGYTRREPLGVCVGIGAWNYPFQIASWKSAPALACGNAMVFKPSPFTPVSALLLAEIYSEAGVPPGLFNVVQGGAATGQFLCQHPDVAKVSFTGSVPTGMKIMEMSAKGIKPVTL | soluble
14 | STAGKVIKCKAAVLWEEKKPFSIEEVEVAPPKAHEVRIKMVATGICRSDDHVVSGTLVTPLPVIAGHEAAGIVESIGEGVTTVRPGDKVIPLWTPQCGKCRVCKHPEGNFCLKNDLSMPRGTMQDGTSRFTCRGKPIHHFLGTSTFSQYTVVDEISVAKIDAASPLEKVCLIGCGFSTGYGSAVKVAKVTQGSTCAVFGLGGAGLSVIMGCKAAGAARIIGVDINKDKFAKAKEVGATECVNPQDYKKPIQEVLTEMSNGGVDFSFEVIGRLDTMVTALSCCQEAYGVSVIVGVPPDSQNLSMNPMLLLSGRTWKGAIFGGFKSKDSVPKLVADFMAKKFALDPLITHVLPFEKINEGFDLLRSGESIRTILTF | soluble
15 | STGVPATDLQQSIMKNVQPIELYFDNELVTDCSALGVYDNSYLVPLHLFEFDFDTIVLGGRHYKKAECEKVEFELEVNGDMVSSDACLLRVPSGPKVRNIVHLFTNEIELKKMTQVTGIMNSPHQARTVFFGSFLTVRKSILTSDGTVMPNVLSYAAQTSRGYCGAAIVAGSPARIIGIHSAGTGSVAFCSLVSKDALERTLPQKQGNVSRLDDDVRVSVPRRSKLVKSLAYPIFKPDYGPAPLSQFDKRLSDGVKLDEVVFAKHTGDKEISAQDQKWLLRAAHVYAQKVFSRIGFDNQALTEKEAICGIPGLDKMEQDTAPGLPYAQQNKRRKDICDFEEGRLKGAAKFQKDRFMAGDYSDLIYQSFLKDEIRPLEKVRAGKTRLIDVPPMPHVVVGRQLLGRFVAKFHEANGFDIGSAIGCDPDVDWTRFGLELERFRYVYACDYSRFDANHAADAMRVVLNYFFSEDHGFDPGVPAFIESLIDSVHAYEEKRYNIYGGLPSGCSCTSILNTILNNVYILAAMMKAYENFEPDDIQVICYGDDCLIASDFEIDFQQLVPVFSSFGQVITTADKTDFFKLTTLSEVTFLKRAFVPDGAFYKPVMDVKTLEAILSFVRPGTQAEKLLSVAQLAGHCEPEQYERLFEPFVGMYFVPTWRDLRLQWLMKLGC | soluble
16 | STSELDIFVGNTTLIDEDVYRLWLDGYSVTDAVALRVRSGILEQTGATAAVLQSDTMDHYRTFHMLERLLHAPPKLLHQLIFQIPPSRQALLIERYYAFDEAFVREVLGKKLSKGTKKDLDDISTKTGITLKSCRRQFDNFKRVFKVVEEMRGSLVDNIQQHFLLSDRLARDYAAIVFFANNRFETGKKKLQYLSFGDFAFCAELMIQNWTLGAVDSQMDDMDMDLDKEFLQDLKELKVLVADKDLLDLHKSLVCTALRGKLGVFSEMEANFKNLSRGLVNVAAKLTHNKDVRDLFVDLVEKFVEPCRSDHWPLSDVRFFLNQYSASVHSLDGFRHQALWDRYMGTLRGCLLRLYHD | soluble
17 | STSSDPQSHNVFVYGSILEPAVAAVILDRTADTVPAVLHGYHRYKLKGLPYPCIVSSDSGKVNGKVITGVSDAELNNFDVIEGNDYERVTVEVVRMDNSEKVKVETYVWVNKDDPRMYGEWDFEEWRVVHAEKFVETFRKMLEWNKNPNGKSMEEAVGSLLSSGD | soluble
18 | SVDDSKYQCVKLNDGHFMPVLGFGTYAPAEVPKSKALEAVKLAIEAGFHHIDSAHVYNNEEQVGLAIRSKIADGSVKREDIFYTSKLWSNSHRPELVRPALERSLKNLQLDYVDLYLIHFPVSVKPGEEVIPKDENGKILFDTVDLCATWEAMEKCKDAGLAKSIGVSNFNHRLLEMILNKPGLKYKPVCNQVECHPYFNQRKLLDFCKSKDIVLVAYSALGSHREEPWVDPNSPVLLEDPVLCALAKKHKRTPALIALRYQLQRGVVVLAKSYNEQRIRQNVQVFEFQLTSEEMKAIDGLNRNVRYLTLDIFAGPPNYPFSDEY | soluble
19 | SVDILVIPGHVRGDAAVISKVVGRPVYKGTVSPVYIPDIMKILRSGGKLDTEKPAEEVVKLSDYTSKIVFREAFRVGSLRIPLKPPPLLVVAEIPPTVAEDGIAGLAARMERDGASMVAVGTGFDDDPQVVHEKVRTALSALKDSPVIAETPTLDHAYSALKAGASGVIMPVETAVRLASEKPLPGDAFIIVSGEQPEELAKAVESLRTSGYSKVAVDPSLSPPLLGLLESIERFRRASRLLNVPLVFSAANVAEEVQADSHGVHALLALMALEAGASIYYVVEDSYKSYRSTAEAAEAARYASAARTLFSPRIPLTRLFVVKQPRRPPNPVEPPGERVNVDYIPPSMDRTGYAHIQVDHERGVIMLTFYPAGGEPVTFEGRKPTSLLRALTSRFPVSSEHAGYIGYELAKAEIALALGKTYVQDSPVLVPVWGGLDEE | not soluble
20 | SVPIVSAWEKGMEAARALMDKYHVDNDLKANFKLLPDQVEALAAVCKTWLNEEHRGLQLTFTSNKTFVTMMGRFLQAYLQSFAEVTYKHHEPTGCALWLHRCAEIEGELKCLHGSIMINKEHVIEMDVTSENGQRALKEQSSKAKIVKNRWGRNVVQISNTDARCCVHDAACPANQFSGKSCGMFFSEGAKAQVAFKQIKAFMQALYPNAQTGHGHLLMPLRCECNSKPGHAPFLGRQLPKLTPFALSNAEDLDADLISDKSVLASVHHPALIVFQCCNPVYRNSRAQGGGPNCDFKISAPDLLNALVMVRSLWSENFTELPRMVVPEFKWSTKHQYRNVSLPVAHSDARQNPFDF | soluble
